In paper PMC5467210 (2017) one finds stoichiometry N and Kd data, which are given here for four molecules.

Experiment [1] addresses NatA complex (His6-Naa15-Naa10ΔC-His6) (Chaetomium thermophilum). Nature of the experiment: SEC-MALS; NatA-HypK complex (0.2 mg) on Superdex 200 10/300 in SEC buffer coupled to MALS. Background: In gel filtration, larger molecules generally elute earlier.
Experiment [2] has as its target T1, NatA complex (Naa15-Naa10ΔC-His6) (Chaetomium thermophilum).
T1 chain 1: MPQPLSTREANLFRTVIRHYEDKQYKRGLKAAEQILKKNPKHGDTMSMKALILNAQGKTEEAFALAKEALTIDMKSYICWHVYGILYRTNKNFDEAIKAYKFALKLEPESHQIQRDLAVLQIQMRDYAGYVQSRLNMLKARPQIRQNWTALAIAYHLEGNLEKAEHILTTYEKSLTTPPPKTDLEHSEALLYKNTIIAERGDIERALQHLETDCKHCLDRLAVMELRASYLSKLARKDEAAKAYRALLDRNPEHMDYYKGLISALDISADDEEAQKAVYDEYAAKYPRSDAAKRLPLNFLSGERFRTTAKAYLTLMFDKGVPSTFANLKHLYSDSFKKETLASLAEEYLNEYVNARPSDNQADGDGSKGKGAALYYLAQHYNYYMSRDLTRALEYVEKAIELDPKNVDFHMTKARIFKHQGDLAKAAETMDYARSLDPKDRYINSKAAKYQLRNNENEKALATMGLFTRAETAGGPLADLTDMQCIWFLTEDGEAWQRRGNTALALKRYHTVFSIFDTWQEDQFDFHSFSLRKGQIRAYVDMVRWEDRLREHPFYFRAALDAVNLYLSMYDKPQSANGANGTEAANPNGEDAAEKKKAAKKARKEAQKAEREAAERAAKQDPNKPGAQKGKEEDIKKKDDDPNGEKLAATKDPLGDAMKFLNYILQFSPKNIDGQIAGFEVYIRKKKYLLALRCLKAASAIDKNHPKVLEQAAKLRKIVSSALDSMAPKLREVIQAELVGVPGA
T1 chain 2: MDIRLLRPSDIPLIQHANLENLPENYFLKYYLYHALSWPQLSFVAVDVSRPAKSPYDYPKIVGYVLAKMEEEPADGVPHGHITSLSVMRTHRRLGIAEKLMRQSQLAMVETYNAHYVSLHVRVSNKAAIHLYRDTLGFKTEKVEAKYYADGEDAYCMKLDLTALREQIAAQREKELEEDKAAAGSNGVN
Nature of the experiment: ITC; HypK-StrepII variants (100-400 μM) in the syringe, preformed NatA (Naa15-Naa10ΔC-His6, 10-40 μM) in the cell; 25 °C; 20 mM HEPES pH 7.5, 150 mM NaCl, 10 mM MgCl2, 10 mM KCl; single-site model; triplicates. In general terms: In ITC the heat of successive injections is recorded.

Experiment [3] deals with T1, NatA complex (Naa15-Naa10ΔC-His6). Nature of the experiment: ITC.

One may read the stoichiometry N as the number of molecules, sites or subunits per partner or assembly. Consider “His6-HypK (full length) (natural protein)”, for which, in experiment [1], the stoichiometry N came out at 1.
Broadly, the Kd is a measure of binding affinity in units of concentration. Molecule “HypK-StrepII (full length) (natural protein)” displayed a Kd in experiment [2] of 38.3 nM. This counts as double-digit nanomolar.

B1: HypKΔN50-StrepII (domain or fragment)
chain: MAPAREVDQEAVKNAMSALSGASTEKKEVKKVKVDPADVNLLVEELELSKAKATELLKAHDGDAIKAMKAYIQPAF
For the molecule B1, binding in experiment [3] was characterised by a dissociation constant (Kd) of 28.6 nM.

B2: HypK-THB-StrepII (domain or fragment)
chain: GAMGKVDPADVNLLVEELELSKAKATELLKAHDGDAIKAMKAYIQPAFGSGSGSWSHPQFEK
B2: in experiment [3], the dissociation constant (Kd) came to 46.9 nM.
